Target: patient IgG preparation from the immunoadsorption column regenerate of an α1-AR agAAB positive patient with mild vascular dementia
Experiment: competition ELISA: free loop1 peptide (0.3 nM to 5 µM) preincubated with patient IgG, binding to immobilised loop1 peptide read

EC50: 30 nM
Binder: LGYWAFGRVFCN [free (soluble) synthetic peptide corresponding to extracellular loop1 of the human α1-AR]
